Laboratory results published in paper PMC8719716.

Columns and labels:
Plk1 = Plk1 (UniProt P70032); experiment: reciprocal co-IP of tagged proteins, embryo lysates; conditions: reference: wild type CEP97; sites S634,S643,S649,S653
Plk1 PB1 and PB2 domains = Plk1 PB1 and PB2 domains (UniProt P70032); experiment: as above; conditions: reference: wild type CEP97; sites S634,S643,S649,S653

binding against the reference (Plk1): weaker | binding against the reference (Plk1 PB1 and PB2 domains): lost
Substance: CEP97 (from UniProt Q6GPJ8) CEP97 SA (S634A, S643A, S649A, S653A)
